Reference: patent US20230312755A1

Legend:
[1] = molecular target: His-tagged human Sclerostin (NCBI reference No. NP_079513.1) (human) (UniProt Q9BQB4); test: ELISA, plate coated with His-tagged human Sclerostin
human Sclerostin (human) [2] = molecular target: human Sclerostin (human) (UniProt Q9BQB4); test: BLI (Gator), antibody on anti-hFc biosensor, Sclerostin as analyte, 1:1 global fit
human Sclerostin (human) [3] = molecular target: human Sclerostin (human) (UniProt Q9BQB4); test: cell-based or functional assay

Chain of human Sclerostin (human) (Q9BQB4 24-213 limits assumed): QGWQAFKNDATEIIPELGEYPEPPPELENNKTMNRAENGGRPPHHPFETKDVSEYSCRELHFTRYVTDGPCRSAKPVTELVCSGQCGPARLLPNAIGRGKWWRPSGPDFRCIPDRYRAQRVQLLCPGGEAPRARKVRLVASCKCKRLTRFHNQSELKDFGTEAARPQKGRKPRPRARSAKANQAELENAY
Chain of His-tagged human Sclerostin (NCBI reference No. NP_079513.1) (human) (Q9BQB4 24-213 limits assumed): as above

B1: Romosozumab (antibody, INN chains, looked up, V domains shown)
VH: EVQLVQSGAEVKKPGASVKVSCKASGYTFTDYNMHWVRQAPGQGLEWMGEINPNSGGAGYNQKFKGRVTMTTDTSTSTAYMELRSLRSDDTAVYYCARLGYDDIYDDWYFDVWGQGTTVTVSS
VL: DIQMTQSPSSLSASVGDRVTITCRASQDISNYLNWYQQKPGKAPKLLIYYTSRLLSGVPSRFSGSGSGTDFTLTISSLQPEDFATYYCQQGDTLPYTFGGGTKVEIK
B1 was tested, and the EC50 [1] was 0.11 nM, the Kd (human Sclerostin (human) [2]) was 0.78 nM and the koff (human Sclerostin (human) [2]) was 0.00028 s⁻¹. The kon (human Sclerostin (human) [2]) was 360000 M⁻¹ s⁻¹ and the EC50, Sclerostin-neutralisation activity in HEK293/TCF/LEF/Wnt1 cells (luciferase reporter) (human Sclerostin (human) [3]) was 42.3 nM.
